From the Immune Epitope Database (IEDB)
One block for each sequence: values may come before it.

Key:
Test in all cases: IEDB peptide-MHC binding, purified MHC/direct/fluorescence; filed as Kd, often an IC50 or EC50 that approximates it; ≥ and ≤ were set here for values at or beyond the usual limits of such assays
Conditions in all cases: source organism: Homo sapiens
[1] = molecular target: HLA-B*08:01
[2] = molecular target: HLA-B*13:02
[3] = molecular target: HLA-C*01:02
[4] = molecular target: HLA-A*02:01
[5] = molecular target: HLA-C*07:01
[6] = molecular target: HLA-A*24:02

Sequence: FLPWHRLFL
Kd [3]: 100 nM

Sequence: HLIDPNTLQV
Kd [4]: 10 nM

Sequence: KRPTPTFHS
Kd [5]: 1000 nM

Sequence: QLPDSVNQL
Kd [4]: 100 nM

Sequence: RSLEYLPLRF
Kd [6]: ≥ 10000 nM

Sequence: SYLEQASRI
Kd [6]: 1000 nM

More lines, now with the values ahead:

Kd [1]: 100 nM
Sequence: DMKARQEAL

Kd [2]: ≥ 10000 nM
Sequence: ELPKYGVKV

Kd [1]: 100 nM
Sequence: FLHEKQHEL

Kd [4]: 100 nM
Sequence: LLMEKEDYHSL

Kd [1]: 100 nM
Sequence: YIHGGGWAL
